Experimental data reported in US20260022175A1 (Chugai, published 2026).

T1: human FcγRIIa H extracellular domain (human, UniProt P12318 34-217)
T1 construct: extracellular domain; also called hFcγR IIa H
T1 sequence (looked up): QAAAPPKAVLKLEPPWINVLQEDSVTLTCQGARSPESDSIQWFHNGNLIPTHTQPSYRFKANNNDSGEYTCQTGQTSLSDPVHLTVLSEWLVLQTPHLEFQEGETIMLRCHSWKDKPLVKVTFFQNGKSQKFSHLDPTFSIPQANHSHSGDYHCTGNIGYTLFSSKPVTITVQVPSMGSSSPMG

T2: human FcγRIIa R extracellular domain (human, UniProt P12318 34-217)
T2 construct: extracellular domain; also called hFcγR IIa R
T2 sequence (looked up): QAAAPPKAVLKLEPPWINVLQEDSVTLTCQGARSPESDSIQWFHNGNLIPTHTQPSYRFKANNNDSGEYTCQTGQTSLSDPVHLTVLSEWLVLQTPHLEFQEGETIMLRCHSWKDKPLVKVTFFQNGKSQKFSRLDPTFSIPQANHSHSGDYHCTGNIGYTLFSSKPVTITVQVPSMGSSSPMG

T3: hFcγRIIaH on hFcγRIIaH-expressing Jurkat cells (human, UniProt P12318 34-317)
T3 sequence (looked up): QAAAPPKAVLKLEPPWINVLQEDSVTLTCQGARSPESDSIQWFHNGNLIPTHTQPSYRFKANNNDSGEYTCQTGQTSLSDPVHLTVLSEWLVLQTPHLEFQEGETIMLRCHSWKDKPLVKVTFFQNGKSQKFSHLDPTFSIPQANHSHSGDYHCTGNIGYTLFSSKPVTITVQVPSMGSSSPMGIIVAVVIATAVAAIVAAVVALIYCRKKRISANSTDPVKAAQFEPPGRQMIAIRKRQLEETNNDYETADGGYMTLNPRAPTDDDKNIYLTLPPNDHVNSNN

T4: human FcγRIIb extracellular domain (human, UniProt P31994 43-217)
T4 construct: extracellular domain; also called hFcγR IIb
T4 sequence (looked up): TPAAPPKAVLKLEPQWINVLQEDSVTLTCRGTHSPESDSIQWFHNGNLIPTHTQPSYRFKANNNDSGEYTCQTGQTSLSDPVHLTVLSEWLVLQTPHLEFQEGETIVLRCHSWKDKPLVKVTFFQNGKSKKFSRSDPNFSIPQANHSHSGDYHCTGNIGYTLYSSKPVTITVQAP


Legend:
[1] = target: hFcγRIIIaV on hFcγRIIIaV-expressing Jurkat cells (human, UniProt P08637 17-254); experiment: cell-based or functional assay
Sequence of hFcγRIIIaV on hFcγRIIIaV-expressing Jurkat cells (P08637 17-254, form in doubt): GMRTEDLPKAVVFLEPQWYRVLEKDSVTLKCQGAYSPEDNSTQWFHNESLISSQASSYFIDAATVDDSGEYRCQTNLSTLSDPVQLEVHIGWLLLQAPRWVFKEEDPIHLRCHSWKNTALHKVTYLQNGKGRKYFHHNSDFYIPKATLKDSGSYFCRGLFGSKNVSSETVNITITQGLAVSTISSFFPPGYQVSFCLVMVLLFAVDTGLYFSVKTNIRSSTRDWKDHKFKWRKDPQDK

[2] = target: T1, human FcγRIIa H extracellular domain; experiment: SPR Biacore 8K+; KD for FcγRIIb divided by KD for this FcγR;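 also: antibodies captured on an anti-human Fab kappa SA chip with soluble human FcγR ectodomains flowed over, FcγRIIb KD from steady-state fit, other FcγR KD from Langmuir model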
[3] = target: T2, human FcγRIIa R extracellular domain; experiment: as above
[4] = target: T5, human FcγRIIIa V extracellular domain (human, UniProt P08637 17-208); experiment: as above
T5 construct: extracellular domain; also called hFcγR IIIa V
T5 sequence (P08637 17-208 F176V limits assumed): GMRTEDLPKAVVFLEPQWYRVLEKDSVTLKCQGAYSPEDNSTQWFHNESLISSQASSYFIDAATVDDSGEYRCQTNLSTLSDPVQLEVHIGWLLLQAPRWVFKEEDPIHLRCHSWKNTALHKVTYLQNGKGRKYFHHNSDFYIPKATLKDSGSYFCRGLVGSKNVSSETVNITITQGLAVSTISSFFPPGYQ

[5] = target: T6, human FcγRIIIa F extracellular domain (human, UniProt P08637 17-208); experiment: as above
T6 construct: extracellular domain; also called hFcγR IIIa F
T6 sequence (P08637 17-208): as the sequence (P08637 17-208 F176V limits assumed) above, with V160F counted along it

[6] = target: T7, human C1q protein (Calbiochem) (human, UniProt P02745 23-245; P02746 28-253; P02747 29-245); experiment: ELISA: antibody coated on the plate at the varied concentration, hC1q 3 µg/mL added, detected with HRP-conjugated anti-hC1q antibody, O.D (450-690nm)
T7 construct: bought; also called hC1q
T7 sequence (P02745 23-245 limits assumed, chain 1 of 3): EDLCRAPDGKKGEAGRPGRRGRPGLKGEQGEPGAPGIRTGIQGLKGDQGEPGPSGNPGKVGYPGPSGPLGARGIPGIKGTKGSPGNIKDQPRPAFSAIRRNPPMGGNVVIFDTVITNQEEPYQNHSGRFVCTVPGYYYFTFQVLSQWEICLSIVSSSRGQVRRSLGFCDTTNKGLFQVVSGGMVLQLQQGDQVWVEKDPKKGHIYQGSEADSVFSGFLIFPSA
T7 sequence (P02746 28-253 limits assumed, chain 2 of 3): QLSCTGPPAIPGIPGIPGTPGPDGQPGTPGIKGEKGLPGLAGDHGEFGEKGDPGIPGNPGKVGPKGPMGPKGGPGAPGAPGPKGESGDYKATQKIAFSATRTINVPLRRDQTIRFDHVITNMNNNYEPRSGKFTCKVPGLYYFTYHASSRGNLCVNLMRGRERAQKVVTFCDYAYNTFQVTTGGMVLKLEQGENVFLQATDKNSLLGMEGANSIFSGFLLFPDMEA
T7 sequence (P02747 29-245 limits assumed, chain 3 of 3): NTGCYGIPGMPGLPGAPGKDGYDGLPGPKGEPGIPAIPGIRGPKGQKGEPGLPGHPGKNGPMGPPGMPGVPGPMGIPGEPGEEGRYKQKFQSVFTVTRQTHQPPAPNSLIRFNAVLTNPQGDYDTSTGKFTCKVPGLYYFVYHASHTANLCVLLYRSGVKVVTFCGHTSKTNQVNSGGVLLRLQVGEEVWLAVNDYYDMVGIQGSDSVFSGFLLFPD
Protocol: The antigen used was a human C1q protein (hC1q).
First, a 96-well maxisorp plate (Thermo fisher) was coated at 4° C. overnight with 50 μL of solutions containing each antibody prepared at 30, 10, 3, 1, 0.3, 0.1, and 0.03 μg/mL in PBS. Each well of the plate was washed with Wash buffer to remove the antibody not bound to the plate, and then the wells were blocked with 200 μL of Blocking/dilution Buffer at room temperature for 2 hours or longer. After the Blocking/dilution Buffer was removed from each well, hC1q (Calbiochem) prepared such that the final concentration was 3 μg/mL in Blocking/dilution Buffer was added at 50 μL per well. The plate was then allowed to stand at room temperature for 1 hour to allow hC1q to bind to the antibody within each well. After washing with Wash Buffer, 50 μL of an HRP-conjugated anti-hC1q antibody (AbDSerotec) diluted with Blocking/dilution Buffer was added to each well, and the plate was incubated while standing for 1 hour. After washing with Wash Buffer, TMB single solution (Invitrogen) was added. The color development reaction of the solution in each well was stopped by addition of Stop Buffer, and then the developed color was measured by absorbance at 450 nm and 690 nm.

[7] = target: T1, human FcγRIIa H extracellular domain; experiment: SPR Biacore 8K+, antibody captured, FcγR as analyte, 1:1 Langmuir model;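 also: antibodies captured on a streptavidin chip through a biotinylated anti-human Fab kappa reagent, with FcγR extracellular domains injected in pH 7.4 phosphate buffer at 25 °C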
[8] = target: T2, human FcγRIIa R extracellular domain; experiment: as above
[9] = target: T8, human FcγRIa extracellular domain (human, UniProt P12314 16-292); experiment: as above
T8 construct: extracellular domain; also called hFcγR Ia; hFcγRIa
T8 sequence (P12314 16-292): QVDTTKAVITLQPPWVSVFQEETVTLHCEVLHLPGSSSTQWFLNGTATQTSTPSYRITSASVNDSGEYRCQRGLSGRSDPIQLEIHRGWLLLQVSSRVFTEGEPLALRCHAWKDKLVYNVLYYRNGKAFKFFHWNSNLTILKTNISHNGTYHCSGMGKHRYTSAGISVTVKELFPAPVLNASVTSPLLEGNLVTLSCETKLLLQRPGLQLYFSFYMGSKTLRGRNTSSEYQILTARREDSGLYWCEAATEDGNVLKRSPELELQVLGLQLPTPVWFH

[10] = target: T5, human FcγRIIIa V extracellular domain; experiment: as above
[11] = target: T6, human FcγRIIIa F extracellular domain; experiment: as above
[12] = target: T3, hFcγRIIaH on hFcγRIIaH-expressing …; experiment: cell-based or functional assay
[13] = target: T1, human FcγRIIa H extracellular domain; experiment: SPR Biacore 8K+; KD of G1d divided by KD of this antibody;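 also: antibodies captured on an anti-Fab-kappa streptavidin chip, soluble FcγR ectodomains flowed over, KD by steady-state fit for FcγRIIb and Langmuir kinetic model for the other receptors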
[14] = target: T4, human FcγRIIb extracellular domain; experiment: as above
[15] = target: T2, human FcγRIIa R extracellular domain; experiment: as above
[16] = target: T8, human FcγRIa extracellular domain; experiment: as above
[17] = target: T5, human FcγRIIIa V extracellular domain; experiment: as above
[18] = target: T6, human FcγRIIIa F extracellular domain; experiment: as above
[19] = target: T4, human FcγRIIb extracellular domain; experiment: SPR Biacore 8K+, antibody captured, FcγR as analyte, steady state affinity model
Protocol: The interaction between the produced antibodies and human FcγRs was analyzed using Biacore 8K+ by the method below. For the running buffer, 50 mM Na-Phosphate, 150 mM NaCl, and 0.05% Tween20 (pH 7.4) was used, and measurement was performed at 25° C. The sensor chip used was a Series S SA chip (GE Healthcare) onto which CaptureSelect Human Fab-kappa Kinetics Biotin Conjugate (Thermo Fisher Scientific) was immobilized. An antibody of interest was captured onto this chip, and each FcγR diluted with the running buffer was allowed to interact with it. The chip was regenerated using 10 mM Glycine-HCl (pH 1.5), and repeatedly used to capture antibodies and perform measurement. The dissociation constants KD (mol/L) of each antibody for FcγRs were calculated using Biacore Insight Evaluation Software, with a steady state affinity model for the dissociation constant for FcγRIIb and a 1:1 Langmuir binding model for the dissociation constants for the other FcγRs (Table 48).

| Binder | EC50 value (hFcγRIIIaV ADCC Reporter Bioassay, Hepa1-6/hEREG target cells) [1] [ng/mL] | A/I ratio (KD for FcγRIIb divided by KD for each FcγR) [2] | A/I ratio (KD for FcγRIIb divided by KD for each FcγR) [3] | A/I ratio (KD for FcγRIIb divided by KD for each FcγR) [4] | A/I ratio (KD for FcγRIIb divided by KD for each FcγR) [5] | binding result [6] | Kd [7] [nM] | Kd [8] [nM] | Kd [9] [nM] | Kd [10] [nM] | Kd [11] [nM] | EC50 value (hFcγRIIaH ADCP Reporter Bioassay, Hepa1-6/hEREG target cells) [12] [ng/mL] | Relative value to KD between G1d and hFcgRs [13] | Relative value to KD between G1d and hFcgRs [14] | Relative value to KD between G1d and hFcgRs [15] | Relative value to KD between G1d and hFcgRs [16] | Relative value to KD between G1d and hFcgRs [17] | Relative value to KD between G1d and hFcgRs [18] | Kd [19] [nM] |
| --- | --- | --- | --- | --- | --- | --- | --- | --- | --- | --- | --- | --- | --- | --- | --- | --- | --- | --- | --- |
| H240-Kn443/L73-k0//H240-Hl408/L73-k0 (antibody, human IgG1, kappa, also called EGL-ART3; ART3) heavy 1: QDQLVQSGAEVKKPGASVKVSCKASGFNIKDTYIQWVRQAPGQGLEWMGRIDPLRKQTKYREKFEGRVTITADTSTNTAYMELSSLRSEDTAVYYCVRSGREFDYWGQGTLVTVSSASTKGPSVFPLAPSSKSTSGGTAALGCLVKDYFPEPVTVSWNSGALTSGVHTFPAVLQSSGLYSLSSVVTVPSSSLGTQTYICNVNHKPSNTKVDKKVEPKSCDKTHTCPPCPAPEFQWGPMVFLFPPKPKDTLMISRTPEVTCVVVDVSDEEPEVKFNWYVDGVEVHNAKTKPREEQYNATYRVVSVLTVLHQDWLNGKEYKCKVSNDALPAPIEKTISKAKGQPREPQVCTLPPSRDELTKNQVSLWCLVKGFYPSDIAVEWESNGQPENNYKTTPPVLDSDGSFFLYSKLTVDKSRWQQGNVFSCSVMHEALHNHYTQKSLSLSP heavy 2: QDQLVQSGAEVKKPGASVKVSCKASGFNIKDTYIQWVRQAPGQGLEWMGRIDPLRKQTKYREKFEGRVTITADTSTNTAYMELSSLRSEDTAVYYCVRSGREFDYWGQGTLVTVSSASTKGPSVFPLAPSSKSTSGGTAALGCLVKDYFPEPVTVSWNSGALTSGVHTFPAVLQSSGLYSLSSVVTVPSSSLGTQTYICNVNHKPSNTKVDKKVEPKSCDKTHTCPPCPAPELLAGPSVFLFPPKPKDTLMISRTPEVTCVVVDVSHEEPEVKFNWYVDGVEVHNAKTKPREEQYNATYRVVSVLTVLHQDWLNGKEYKCKVSNDALPAPIEETISKAKGQPREPQVYTLPPSRCELTKNQVSLSCAVKGFYPSDIAVEWESNGQPENNYKTTPPVLDSDGSFFLVSKLTVDKSRWQQGNVFSCSVMHEALHNHYTQKSLSLSP light: DIQMTQSPSSLSASVGDRVTITCRASQDIHKYIAWYQQKPGQAPRLLIQYTSTLQPGVPSRFSGSGSGTDYTFTISSLQPEDIATYYCLQYEQLRTFGGGTKVEIKRTVAAPSVFIFPPSDEQLKSGTASVVCLLNNFYPREAKVQWKVDNALQSGNSQESVTEQDSKDSTYSLSSTLTLSKADYEKHKVYACEVTHQGLSSPVTKSFNRGEC | 1.53 | 181 | 52.4 | 2000 | 396 | binds | 35 | 121 | 0.172 | 3.16 | 16 | 15.8 | 32.1 | 1.6 | 13.7 | 0.5 | 114 | 185 | 6330 |
| H240-Kn461/L73-k0//H240-Hl443/L73-k0 (antibody, human IgG1, kappa, also called EGL-ART8; ART8) heavy 1: QDQLVQSGAEVKKPGASVKVSCKASGFNIKDTYIQWVRQAPGQGLEWMGRIDPLRKQTKYREKFEGRVTITADTSTNTAYMELSSLRSEDTAVYYCVRSGREFDYWGQGTLVTVSSASTKGPSVFPLAPSSKSTSGGTAALGCLVKDYFPEPVTVSWNSGALTSGVHTFPAVLQSSGLYSLSSVVTVPSSSLGTQTYICNVNHKPSNTKVDKKVEPKSCDKTHTCPPCPAPEFQWGPMVFLFPPKPKDVLMISRTPEVTCVVVDVSDEEPEVKFNWYVDGVEVHNAKTKPREEQYNATYRVVSVLPVLHQDWLNGKEYKCKVSNDALPAPEEKTISKAKGQPREPQVCTLPPSRDELTKNQVSLWCLVKGFYPSDIAVEWESNGQPENNYKTTPPVLDSDGSFFLYSKLTVDKSRWQQGNVFSCSVMHEALHNHYTQKSLSLSP heavy 2: QDQLVQSGAEVKKPGASVKVSCKASGFNIKDTYIQWVRQAPGQGLEWMGRIDPLRKQTKYREKFEGRVTITADTSTNTAYMELSSLRSEDTAVYYCVRSGREFDYWGQGTLVTVSSASTKGPSVFPLAPSSKSTSGGTAALGCLVKDYFPEPVTVSWNSGALTSGVHTFPAVLQSSGLYSLSSVVTVPSSSLGTQTYICNVNHKPSNTKVDKKVEPKSCDKTHTCPPCPAPELLAGPSVFLFPPKPKDVLMISRTPEVTCVVVDVSHEEPEVKFNWYVDGVEVHNAKTKPREEQYNATYRVVSVLPVLHQDWLNGKEYKCKVSNDALPAPEEETISKAKGQPREPQVYTLPPSRCELTKNQVSLSCAVKGFYPSDIAVEWESNGQPENNYKTTPPVLDSDGSFFLVSKLTVDKSRWQQGNVFSCSVMHEALHNHYTQKSLSLSP light: DIQMTQSPSSLSASVGDRVTITCRASQDIHKYIAWYQQKPGQAPRLLIQYTSTLQPGVPSRFSGSGSGTDYTFTISSLQPEDIATYYCLQYEQLRTFGGGTKVEIKRTVAAPSVFIFPPSDEQLKSGTASVVCLLNNFYPREAKVQWKVDNALQSGNSQESVTEQDSKDSTYSLSSTLTLSKADYEKHKVYACEVTHQGLSSPVTKSFNRGEC | 1.07 | 47.2 | 28.1 | 6850 | 2350 | binds | 74.9 | 126 | 0.028 | 0.51 | 1.5 | 17.1 | 15 | 2.8 | 13.2 | 3.2 | 695 | 1970 | 3530 |
